Measured values: PMC5583970

Target: His-FOR20 (UniProt Q96NB1)
Assay: pull-down; purified His-FOR20 (1 μM) and tubulin dimers (1–8 μM) on ice for 1 h, Ni-NTP beads 30 min, supernatant and pellet on Coomassie gel, band intensities fitted to n identical independent sites; apparent Kd

Chain of UniProt Q96NB1 (Q96NB1 whole entry): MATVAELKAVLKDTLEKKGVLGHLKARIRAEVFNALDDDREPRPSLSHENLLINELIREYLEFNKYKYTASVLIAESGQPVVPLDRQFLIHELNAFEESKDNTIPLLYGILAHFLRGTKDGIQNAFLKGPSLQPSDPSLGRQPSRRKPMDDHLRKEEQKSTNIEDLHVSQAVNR

- Kd: 3.5 µM
- stoichiometry N (tubulin dimers per FOR20): 6
Substance: free tubulin dimers (αβ-tubulin heterodimers) (from UniProt P02550 1-451; P02554 1-445) (complex)
